From patent publication US20050054024

System: T1, 7-nitrobenz-2-oxa-1,3-diazole (NBD)-NH-Ser-Phe-Arg4-Lys-amide 2
T1 sequence: SFRRRRK

recombinant human protein kinase C γ
Km (Fluorescence assay): 30 µM
Km (Radioactive assay): 5 µM
kcat (Fluorescence assay): 3.17 s⁻¹
kcat (Radioactive assay): 3.5 s⁻¹
kcat/Km (Fluorescence assay): 105000 M⁻¹ s⁻¹
kcat/Km (Radioactive assay): 700000 M⁻¹ s⁻¹
